The record followed here is PMC11078181, “Genomic context– and H2AK119 ubiquitination–dependent inheritance of human Polycomb silencing” (Science Advances, 2024).

The target of this test is T1, Strep-RBBP7 (UniProt Q16576 1-425).
T1 construct: called full-length in the results; also called full-length RBB7; source: HEK293FT, transiently transfected, purified (Strep-Tactin Sepharose, eluted with desthiobiotin)
Description: pull-down; GST or GST-BCORL(S1474-G1644) (0.1 μM) on Glutathione Sepharose 4B with Strep-RBBP7 (0.1 μM), lysis buffer with 0.1% Triton X-100, overnight at 4°C; stain-free SDS-PAGE. The conditions noted are these: both partners purified.

T1 sequence (Q16576 whole entry): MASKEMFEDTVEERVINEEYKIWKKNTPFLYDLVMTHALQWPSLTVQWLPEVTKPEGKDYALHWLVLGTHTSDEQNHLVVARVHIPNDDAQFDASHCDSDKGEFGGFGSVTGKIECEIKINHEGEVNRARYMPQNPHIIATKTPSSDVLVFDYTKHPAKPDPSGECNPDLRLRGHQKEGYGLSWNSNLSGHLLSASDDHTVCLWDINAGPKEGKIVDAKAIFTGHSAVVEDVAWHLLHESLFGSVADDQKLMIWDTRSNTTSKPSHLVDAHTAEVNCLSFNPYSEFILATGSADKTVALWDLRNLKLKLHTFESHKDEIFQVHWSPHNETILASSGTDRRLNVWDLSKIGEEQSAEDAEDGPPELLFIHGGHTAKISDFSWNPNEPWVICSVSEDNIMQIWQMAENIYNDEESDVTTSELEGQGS

B1: GST-BCORL(S1474-G1644) (domain or fragment, UniProt Q5H9F3 1474-1644, looked up)
chain: SESPTARQIPPEARRLIVNKNAGETLLQRAARLGYKDVVLYCLQKDSEDVNHRDNAGYTALHEACSRGWTDILNILLEHGANVNCSAQDGTRPVHDAVVNDNLETIWLLLSYGADPTLATYSGQTAMKLASSDTMKRFLSDHLSDLQGRAEGDPGVSWDFYSSSVLEEKDG
notes: also called GST-BCORL fragment; source: E. coli BL21, purified (Glutathione Sepharose 4B, eluted with glutathione, dialysed); not shown: GST, N-terminal, kept
As to B1, the binding result is listed as “binds”.
